Data: publication doi:10.1101/2020.08.03.234229 (bioRxiv, 2020)

Biological target: T1, TSEN15 tryptic fragment (residues 23 to 170) (human, UniProt Q8WW01 23-170)
T1 sequence (looked up): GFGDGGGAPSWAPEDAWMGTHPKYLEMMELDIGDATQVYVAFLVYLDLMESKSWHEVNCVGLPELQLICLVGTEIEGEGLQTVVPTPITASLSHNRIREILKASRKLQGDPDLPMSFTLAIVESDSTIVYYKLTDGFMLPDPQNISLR
Assay: SEC

B1: TSEN34 tryptic fragment (residues 208 to 310) (domain or fragment, human, UniProt Q9BSV6 208-310, looked up)
chain: DWPHAGRPAHELRYSIYRDLWERGFFLSAAGKFGGDFLVYPGDPLRFHAHYIAQCWAPEDTIPLQDLVAAGRLGTSVRKTLLLCSPQPDGKVVYTSLQWASLQ
- binding result: binds
